Reference: patent publication US11319368B2, “Treatment of hepatotoxicity with IL-11 antibody” (Singapore Health Services PTE LTD., priority 2019, dated 2022)

Experiments:
[1] = system: activated murine CD4+ve T-cells; details: 1-500 ng/ml; cited from earlier work
[2] = system: active Crohn's disease; details: 1 mg, weekly for 12 weeks, SC; 51 patients; cited from earlier work
[3] = system: chronic Hepatitis C and late stage liver disease; details: 5 μg/kg, daily for 12 weeks, SC; 20 patients; cited from earlier work
[4] = system: rheumatoid arthritis; details: up to 15 μg/kg weekly for 12 weeks (SC); cited from earlier work
[5] = system: liver; details: single subcutaneous injection 500 μg kg^-1
Procedure: (A) Effect of recombinant human IL11 (rhIL11, 10 ng ml^−1) or recombinant mouse IL11 (rmIL11, 10 ng ml^−1) on ERK, JNK and CASP3 activation status in mouse hepatocytes. (B) ALT levels in mouse hepatocyte supernatant following stimulation by rmIL11 (10 ng ml^−1) or by increasing doses of rhIL11 (1, 5, 10, 15 and 20 ng ml^−1). (C) Schematic of mice receiving a single subcutaneous injection of either saline, rhIL11, or rmIl11 (500 μg kg^−1). (D) Western blot analysis of hepatic p-ERK, p-JNK, and Cl. […] Dose-dependent inhibition effect of rhIL11 on rmIL11-induced (K) ALT secretion and (L) CASP3 activation by mouse hepatocytes. (A, B, K, L) 24 h. (B, K) Data are shown as mean±SD; (E, G) Data are shown as box-and-whisker with median (middle line), 25th-75th percentiles (box), and minimum-maximum values (whiskers). (B, K) Two-tailed, Tukey-corrected Student's t-test; (E) two-tailed Student's t-test; (G) two-tailed Dunnett's test.
The levels of alanine transaminase (ALT) or aspartate aminotransferase (AST) in mouse serum and hepatocyte supernatant were measured using ALT Activity (ab105134, Abcam) or AST (ab105135, Abcam) Assay Kits. […] All colorimetric assays were performed according to the manufacturer's protocol.
Western blots were carried out from hepatocyte and liver tissue lysates. […] Protein concentrations were determined by Bradford assay (Bio-Rad). […]

[6] = system: AILI; assay: rhIL11 or rmIL11 injection in APAP OD mice; assay type: in vivo, mouse
Procedure: FIGS. 10A to 10L. […] (A, B, K, L) 24 h. […] FC: fold change

[7] = system: primary human hepatocytes; assay: IL11 stimulation of primary human hepatocytes with sgp130 or sIL11Rα; assay type: cell-based; details: IL11 0.625 ng/ml to 20 ng/ml
[8] = system: heart; details: 20 μg/kg, IV at the start of reperfusion; cited from earlier work
[9] = system: Borrelia burgdorferi-infected mice; details: 0.1-2 μg/mouse/day, 5 days/week for 3 weeks; cited from earlier work
[10] = system: human hepatocytes; assay: rhIL11 versus rmIL11 on human hepatocytes; assay type: cell-based; details: 10 ng ml^-1
[11] = system: ulcerative mucositis; details: 50-100 μg/animal/day, SC; cited from earlier work
[12] = system: IRI; details: 500 μg/kg, IP one hour prior to IRI; cited from earlier work
[13] = system: primary human hepatocytes; assay: IL-11 treatment of primary human hepatocytes: ALT in supernatant, actin stress fibres; assay type: cell-based; details: IL-11 0.019-10 ng/ml, 24 h
Procedure: IL-11 mediated hepatocyte cell death was measured by determining the levels of alanine transaminase (ALT) in hepatocyte supernatant after treatment with a range of IL-11 doses (0.019-10 ng/ml). ALT levels were measured using ALT Activity Assay Kit (ab105134, Abcam) according to the manufacturer's protocol. Concurrent number of stress fibres 24 h after IL-11 stimulation was detected by rhodamine-phalloidin staining.

[14] = system: intestinal inflammation; details: mucosal sheets 10-10,000 ng/ml; rats 33 μg/kg alternate days 1 or 2 weeks; cited from earlier work
[15] = system: GVHD; details: 250 μg/kg, SC, twice daily; cited from earlier work
[16] = system: small intestinal mucosa; details: 250 μg/kg; cited from earlier work
[17] = system: early intestinal radiation injury; details: 2 mg/kg/d from 2 days prior until 2 weeks after irradiation; cited from earlier work
[18] = system: mouse hepatocytes; assay: rhIL11 versus rmIL11 on mouse hepatocytes; assay type: cell-based
Source text: Mouse hepatocytes (ABC-TC3928, AcceGen Biotech) were maintained in mouse hepatocyte medium (ABC-TM3928, AcceGen Biotech) supplemented with 1% Penicillin-streptomycin.

[19] = system: mouse livers; details: 500 μg/kg, IV prior to WI/Rp injury; cited from earlier work
[20] = system: murine primary macrophages; details: 10-100 ng/ml; cited from earlier work
[21] = system: Concanavalin A-induced T-cell-mediated hepatotoxicity; details: 50-500 μg/kg, IP 2 hours prior to Concanavalin A; cited from earlier work
[22] = system: infection colitis; details: 5 μg/kg, IP; cited from earlier work
[23] = molecular target: T1, mIL11Rα1 (Mus musculus, UniProt Q64385); assay: Competition ELISA, biotinylated rmIL11 binding to mIL11Rα1; details: two-fold dilutions from 5 μg ml^-1
T1 construct: purchased SinoBiological 50075-M08H
T1 sequence (Q64385 24-432): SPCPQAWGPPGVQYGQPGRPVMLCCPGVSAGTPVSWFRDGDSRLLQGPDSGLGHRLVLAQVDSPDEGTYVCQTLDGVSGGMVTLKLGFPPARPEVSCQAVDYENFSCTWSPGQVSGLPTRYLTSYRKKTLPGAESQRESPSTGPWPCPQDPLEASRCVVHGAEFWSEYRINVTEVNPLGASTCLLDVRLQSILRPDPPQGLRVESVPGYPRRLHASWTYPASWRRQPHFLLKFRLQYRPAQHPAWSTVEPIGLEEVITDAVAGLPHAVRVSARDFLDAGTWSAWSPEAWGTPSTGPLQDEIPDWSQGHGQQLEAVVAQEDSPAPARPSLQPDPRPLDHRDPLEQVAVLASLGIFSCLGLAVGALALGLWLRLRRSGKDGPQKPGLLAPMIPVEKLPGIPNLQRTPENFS
Procedure: Mouse IL11Rα (1 μg ml^−1 in PBS) was coated on a 96-well plate (overnight at 4° C.) and then blocked with blocking buffer (1% BSA in PBS containing 0.05% Tween20). Biotinylated mouse Il11 was prepared using Lightning-Link Rapid Biotin type A kit (Expedeon) according to the manufacturer's instructions. RhIL11 or rmIl11 was two-fold serially diluted in blocking buffer (starting at 5 μg ml^−1) and mixed with 0.01 μg ml^−1 biotinylated mouse IL11. The mixture of biotinylated mouse IL11 and either rhIL11 or rmIL11 was added into the coated plate and incubated for 1 h at RT. Color development was performed by adding Streptavidin-HRP (1:1000 in blocking buffer) and TMB chromogen solution (002023, ThermoFisher Scientific).

[24] = system: primary human hepatocytes; assay: IL11 effect on GSH and NOX4 in primary human hepatocytes; assay type: cell-based
[25] = system: collagen-induced arthritis; details: 0.3-100 μg/mouse/day, IP, 10 days; cited from earlier work
[26] = subcutaneous injection, APAP OD

B1: rhIL11: Recombinant human IL11 (UniProtKB:P20809, Genscript) (protein)
chain: PGPPPGPPRVSPDPRAELDSTVLLTRSLLADTRQLAAQLRDKFPADGDHNLDSLPTLAMSAGALGALQLPGVLTRLRADLLSYLRHVQWLRRAGGSSLKTLEPELGTLQARLDRLLRRLQLLMSRLALPQPPPDPPAPPLAPPSSAWGGIRAAHAILGGLHLTLDWAVRGLLLLKTRL
immune response of CD4+ve T-cells [1]: CD4+ve T-cells and modulates, not represses, the immune
efficacy compared to prednisolone [2]: inferior as compared to prednisolone treatment.
serum ALT by study end [3]: Lower serum ALT was observed by study end. The most
patients with mild adverse effect (erythema with/without induration) at the injection site [4]: with/without induration) at the injection site was seen in 60.6% of
therapeutic benefit [4]: no therapeutic benefit
hepatic ERK and JNK phosphorylation [5]: no effect on ERK or JNK phosphorylation
hepatic ERK and JNK activation ([6]; 24 h following APAP administration): reduction in hepatic ERK and JNK activation
hepatic GSH levels after APAP ([6]; APAP injury): restored APAP-induced GSH depletion
reduction of serum ALT (severity of AILI) [6, 26]: 52%
reduction of serum AST (severity of AILI) [6, 26]: 39%
hepatocyte cell death (ALT) [7]: dose-dependently (0.625 ng/ml to 20 ng/ml) caused hepatocyte cell death
adverse cardiac remodeling and apoptosis [8]: prevents adverse cardiac remodeling and apoptosis after
arthritis and carditis [9]: weeks) reduces arthritis, but not carditis, in Borrelia burgdorferi-
ERK and JNK signaling and hepatocyte death [10]: stimulated ERK and JNK signaling and hepatocyte death
5-fluorouracil-induced ulcerative mucositis [11]: Administration of rhIL11 (50-100 μg/animal/day, SC) protects
hepatoprotection in IRI [12]: Hepatoprotective effects of rhIL11 in mice subjected to a single
actin stress fibres in hepatocytes [13]: progressively stimulated an increase in actin stress fibres
alanine aminotransferase (ALT) in hepatocyte supernatant (hepatocyte cell death) [13]: progressive increase in alanine aminotransferase (ALT)
epithelial transport and inflammation [14]: acts as a modulator of epithelial transport or as an anti-
Graft-vs-Host-Disease [15]: The authors conclude that IL11 prevents Graft-vs-Host-Disease
recovery from chemotherapy and radiation-induced mucosal damage [16]: Administration of rhIL11 (250 μg/kg) promotes recovery from
early intestinal radiation injury [17]: The authors conclude that IL11 ameliorates early intestinal
ERK and JNK phosphorylation, CASP3 cleavage ([18]; 10 ng ml^-1, 24 h): had no effect
mouse hepatocyte cell death (ALT in supernatant) ([18]; 24 h): did not
protection from WI/Rp injury [19]: injury protects mouse livers. In vitro, pre-treatment with rhIL11
secretion of pro-inflammatory cytokines by macrophages [20]: The authors conclude that IL11 inhibits the secretion of pro-
liver necrosis [21]: Concanavalin A-induced T-cell-mediated hepatotoxicity reduces
survival [21]: liver necrosis and enhanced survival in mice.
infection colitis [22]: IP) ameliorates infection colitis and is cytoprotective in TLR2-
competition with rmIL11 for binding to mIL11Rα1 [23]: competed with rmIL11 for binding to mIL11Rα1
GSH depletion ([24]; dose range and time course): stimulated dose-dependent GSH depletion
NOX4 expression ([24]; rhIL11 10 ng ml^-1): NOX4 upregulation
inflammation [25]: days) reduces inflammation in a murine model of collagen-
